Patent EP4692114A1, “CALCITONIN ANALOGUE, AND DERIVATIVE THEREOF AND USE THEREOF” (Hangzhou Sciwind Biosciences Co., Ltd., priority 2023, dated 2024)
*1 amine or outer side, *2 acyl side, *3 side chain or, on linkers, in order; H or OH if unused. [ ]: non-standard residue; d: D form. The star is where a group is joined. C20 diacid = O=C(O)CCCCCCCCCCCCCCCCCCC(=O)*; C18 diacid = O=C(O)CCCCCCCCCCCCCCCCC(=O)*; γGlu = O=C(O)[C@H](CCC(=O)[*:2])N[*:1]; βAsp = O=C(O)[C@H](CC(=O)[*:2])N[*:1]; AEEA = NCCOCCOCC(=O)O

T1: human amylin receptor (AMY3) on CHO-K1/Gal5/AMY3 cells (human, UniProt P30988 25-474; O60896 24-148)
T1 sequence (looked up) 1: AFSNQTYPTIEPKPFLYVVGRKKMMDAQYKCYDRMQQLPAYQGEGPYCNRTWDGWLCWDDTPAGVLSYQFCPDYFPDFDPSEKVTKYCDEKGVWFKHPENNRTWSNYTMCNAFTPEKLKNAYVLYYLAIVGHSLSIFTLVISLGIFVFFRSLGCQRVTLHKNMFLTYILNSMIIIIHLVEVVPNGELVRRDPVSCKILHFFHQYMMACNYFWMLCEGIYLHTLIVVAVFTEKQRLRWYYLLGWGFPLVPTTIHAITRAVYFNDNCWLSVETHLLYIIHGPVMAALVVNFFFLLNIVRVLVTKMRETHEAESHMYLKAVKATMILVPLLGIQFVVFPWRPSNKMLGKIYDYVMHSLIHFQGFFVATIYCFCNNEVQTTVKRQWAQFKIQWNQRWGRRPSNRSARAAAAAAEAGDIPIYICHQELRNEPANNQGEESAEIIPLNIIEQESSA
T1 sequence (looked up) 2: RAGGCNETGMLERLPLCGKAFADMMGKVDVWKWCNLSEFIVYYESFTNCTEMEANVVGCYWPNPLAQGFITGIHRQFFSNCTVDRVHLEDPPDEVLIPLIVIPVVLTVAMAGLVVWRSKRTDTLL


Biological target: T1, human amylin receptor (AMY3) on …
Test: cell-based or functional assay

Binder	EC50/nM, CRE-luciferase in amylin receptor/CRE-luc CHO cells [nM]
{C20 diacid-γGlu}-VSQLSTVVLGRLSQELHRLQDYPRTDVGSGSP-NH2 (SMILES CC(C)C[C@H](NC(=O)[C@H](CCCNC(=N)N)NC(=O)CNC(=O)[C@H](CC(C)C)NC(=O)[C@@H](NC(=O)[C@@H](NC(=O)[C@@H](NC(=O)[C@H](CO)NC(=O)[C@H](CC(C)C)NC(=O)[C@H](CCC(N)=O)NC(=O)[C@H](CO)NC(=O)[C@@H](NC(=O)CC[C@H](NC(=O)CCCCCCCCCCCCCCCCCCC(=O)O)C(=O)O)C(C)C)[C@@H](C)O)C(C)C)C(C)C)C(=O)N[C@@H](CO)C(=O)N[C@@H](CCC(N)=O)C(=O)N[C@@H](CCC(=O)O)C(=O)N[C@@H](CC(C)C)C(=O)N[C@@H](Cc1c[nH]cn1)C(=O)N[C@@H](CCCNC(=N)N)C(=O)N[C@@H](CC(C)C)C(=O)N[C@@H](CCC(N)=O)C(=O)N[C@@H](CC(=O)O)C(=O)N[C@@H](Cc1ccc(O)cc1)C(=O)N1CCC[C@H]1C(=O)N[C@@H](CCCNC(=N)N)C(=O)N[C@H](C(=O)N[C@@H](CC(=O)O)C(=O)N[C@H](C(=O)NCC(=O)N[C@@H](CO)C(=O)NCC(=O)N[C@@H](CO)C(=O)N1CCC[C@H]1C(N)=O)C(C)C)[C@@H](C)O) [calcitonin derivative M26]	0.079
{C20 diacid-γGlu}-ASQLSTAVLGRLSSELHRLQDYPRTDVGSGSP-NH2 (SMILES CC(C)C[C@H](NC(=O)[C@H](CCCNC(=N)N)NC(=O)CNC(=O)[C@H](CC(C)C)NC(=O)[C@@H](NC(=O)[C@H](C)NC(=O)[C@@H](NC(=O)[C@H](CO)NC(=O)[C@H](CC(C)C)NC(=O)[C@H](CCC(N)=O)NC(=O)[C@H](CO)NC(=O)[C@H](C)NC(=O)CC[C@H](NC(=O)CCCCCCCCCCCCCCCCCCC(=O)O)C(=O)O)[C@@H](C)O)C(C)C)C(=O)N[C@@H](CO)C(=O)N[C@@H](CO)C(=O)N[C@@H](CCC(=O)O)C(=O)N[C@@H](CC(C)C)C(=O)N[C@@H](Cc1c[nH]cn1)C(=O)N[C@@H](CCCNC(=N)N)C(=O)N[C@@H](CC(C)C)C(=O)N[C@@H](CCC(N)=O)C(=O)N[C@@H](CC(=O)O)C(=O)N[C@@H](Cc1ccc(O)cc1)C(=O)N1CCC[C@H]1C(=O)N[C@@H](CCCNC(=N)N)C(=O)N[C@H](C(=O)N[C@@H](CC(=O)O)C(=O)N[C@H](C(=O)NCC(=O)N[C@@H](CO)C(=O)NCC(=O)N[C@@H](CO)C(=O)N1CCC[C@H]1C(N)=O)C(C)C)[C@@H](C)O) [calcitonin derivative M11]	0.017
{C18 diacid}-EASQLSTAVLGRLSDELHRLQDYPRTDVGSGSP-NH2 (SMILES CC(C)C[C@H](NC(=O)[C@H](CCCNC(=N)N)NC(=O)CNC(=O)[C@H](CC(C)C)NC(=O)[C@@H](NC(=O)[C@H](C)NC(=O)[C@@H](NC(=O)[C@H](CO)NC(=O)[C@H](CC(C)C)NC(=O)[C@H](CCC(N)=O)NC(=O)[C@H](CO)NC(=O)[C@H](C)NC(=O)[C@H](CCC(=O)O)NC(=O)CCCCCCCCCCCCCCCCC(=O)O)[C@@H](C)O)C(C)C)C(=O)N[C@@H](CO)C(=O)N[C@@H](CC(=O)O)C(=O)N[C@@H](CCC(=O)O)C(=O)N[C@@H](CC(C)C)C(=O)N[C@@H](Cc1c[nH]cn1)C(=O)N[C@@H](CCCNC(=N)N)C(=O)N[C@@H](CC(C)C)C(=O)N[C@@H](CCC(N)=O)C(=O)N[C@@H](CC(=O)O)C(=O)N[C@@H](Cc1ccc(O)cc1)C(=O)N1CCC[C@H]1C(=O)N[C@@H](CCCNC(=N)N)C(=O)N[C@H](C(=O)N[C@@H](CC(=O)O)C(=O)N[C@H](C(=O)NCC(=O)N[C@@H](CO)C(=O)NCC(=O)N[C@@H](CO)C(=O)N1CCC[C@H]1C(N)=O)C(C)C)[C@@H](C)O) [calcitonin derivative M42]	0.016
{C20 diacid}-E[AEEA][AEEA]ASQLSTAVLGRLSEELHRLQDYPRTDVGSGSP-NH2 (SMILES CC(C)C[C@H](NC(=O)[C@H](CCCNC(=N)N)NC(=O)CNC(=O)[C@H](CC(C)C)NC(=O)[C@@H](NC(=O)[C@H](C)NC(=O)[C@@H](NC(=O)[C@H](CO)NC(=O)[C@H](CC(C)C)NC(=O)[C@H](CCC(N)=O)NC(=O)[C@H](CO)NC(=O)[C@H](C)NC(=O)COCCOCCNC(=O)COCCOCCNC(=O)[C@H](CCC(=O)O)NC(=O)CCCCCCCCCCCCCCCCCCC(=O)O)[C@@H](C)O)C(C)C)C(=O)N[C@@H](CO)C(=O)N[C@@H](CCC(=O)O)C(=O)N[C@@H](CCC(=O)O)C(=O)N[C@@H](CC(C)C)C(=O)N[C@@H](Cc1c[nH]cn1)C(=O)N[C@@H](CCCNC(=N)N)C(=O)N[C@@H](CC(C)C)C(=O)N[C@@H](CCC(N)=O)C(=O)N[C@@H](CC(=O)O)C(=O)N[C@@H](Cc1ccc(O)cc1)C(=O)N1CCC[C@H]1C(=O)N[C@@H](CCCNC(=N)N)C(=O)N[C@H](C(=O)N[C@@H](CC(=O)O)C(=O)N[C@H](C(=O)NCC(=O)N[C@@H](CO)C(=O)NCC(=O)N[C@@H](CO)C(=O)N1CCC[C@H]1C(N)=O)C(C)C)[C@@H](C)O) [calcitonin derivative M58]	0.017

Second part, the binder after the results:

EC50/nM, CRE-luciferase in amylin receptor/CRE-luc CHO cells [nM]	Binder
0.017	{C20 diacid-βAsp-AEEA-AEEA}-ASQLSTAVLGRLSEELHRLQDYPRTDVGSGSP-NH2 (SMILES CC(C)C[C@H](NC(=O)[C@H](CCCNC(=N)N)NC(=O)CNC(=O)[C@H](CC(C)C)NC(=O)[C@@H](NC(=O)[C@H](C)NC(=O)[C@@H](NC(=O)[C@H](CO)NC(=O)[C@H](CC(C)C)NC(=O)[C@H](CCC(N)=O)NC(=O)[C@H](CO)NC(=O)[C@H](C)NC(=O)COCCOCCNC(=O)COCCOCCNC(=O)C[C@H](NC(=O)CCCCCCCCCCCCCCCCCCC(=O)O)C(=O)O)[C@@H](C)O)C(C)C)C(=O)N[C@@H](CO)C(=O)N[C@@H](CCC(=O)O)C(=O)N[C@@H](CCC(=O)O)C(=O)N[C@@H](CC(C)C)C(=O)N[C@@H](Cc1c[nH]cn1)C(=O)N[C@@H](CCCNC(=N)N)C(=O)N[C@@H](CC(C)C)C(=O)N[C@@H](CCC(N)=O)C(=O)N[C@@H](CC(=O)O)C(=O)N[C@@H](Cc1ccc(O)cc1)C(=O)N1CCC[C@H]1C(=O)N[C@@H](CCCNC(=N)N)C(=O)N[C@H](C(=O)N[C@@H](CC(=O)O)C(=O)N[C@H](C(=O)NCC(=O)N[C@@H](CO)C(=O)NCC(=O)N[C@@H](CO)C(=O)N1CCC[C@H]1C(N)=O)C(C)C)[C@@H](C)O) [calcitonin derivative M59]
0.032	{C20 diacid-γGlu}-KSQLSTEVLGRLSQELHRLQDYPRTDVGSGSP-NH2 (SMILES CC(C)C[C@H](NC(=O)[C@H](CCCNC(=N)N)NC(=O)CNC(=O)[C@H](CC(C)C)NC(=O)[C@@H](NC(=O)[C@H](CCC(=O)O)NC(=O)[C@@H](NC(=O)[C@H](CO)NC(=O)[C@H](CC(C)C)NC(=O)[C@H](CCC(N)=O)NC(=O)[C@H](CO)NC(=O)[C@H](CCCCN)NC(=O)CC[C@H](NC(=O)CCCCCCCCCCCCCCCCCCC(=O)O)C(=O)O)[C@@H](C)O)C(C)C)C(=O)N[C@@H](CO)C(=O)N[C@@H](CCC(N)=O)C(=O)N[C@@H](CCC(=O)O)C(=O)N[C@@H](CC(C)C)C(=O)N[C@@H](Cc1c[nH]cn1)C(=O)N[C@@H](CCCNC(=N)N)C(=O)N[C@@H](CC(C)C)C(=O)N[C@@H](CCC(N)=O)C(=O)N[C@@H](CC(=O)O)C(=O)N[C@@H](Cc1ccc(O)cc1)C(=O)N1CCC[C@H]1C(=O)N[C@@H](CCCNC(=N)N)C(=O)N[C@H](C(=O)N[C@@H](CC(=O)O)C(=O)N[C@H](C(=O)NCC(=O)N[C@@H](CO)C(=O)NCC(=O)N[C@@H](CO)C(=O)N1CCC[C@H]1C(N)=O)C(C)C)[C@@H](C)O) [calcitonin derivative M36]
0.016	{C20 diacid-γGlu}-LSQLSTLVLGRLSQELHRLQDYPRTDVGSGSP-NH2 (SMILES CC(C)C[C@H](NC(=O)CC[C@H](NC(=O)CCCCCCCCCCCCCCCCCCC(=O)O)C(=O)O)C(=O)N[C@@H](CO)C(=O)N[C@@H](CCC(N)=O)C(=O)N[C@@H](CC(C)C)C(=O)N[C@@H](CO)C(=O)N[C@H](C(=O)N[C@@H](CC(C)C)C(=O)N[C@H](C(=O)N[C@@H](CC(C)C)C(=O)NCC(=O)N[C@@H](CCCNC(=N)N)C(=O)N[C@@H](CC(C)C)C(=O)N[C@@H](CO)C(=O)N[C@@H](CCC(N)=O)C(=O)N[C@@H](CCC(=O)O)C(=O)N[C@@H](CC(C)C)C(=O)N[C@@H](Cc1c[nH]cn1)C(=O)N[C@@H](CCCNC(=N)N)C(=O)N[C@@H](CC(C)C)C(=O)N[C@@H](CCC(N)=O)C(=O)N[C@@H](CC(=O)O)C(=O)N[C@@H](Cc1ccc(O)cc1)C(=O)N1CCC[C@H]1C(=O)N[C@@H](CCCNC(=N)N)C(=O)N[C@H](C(=O)N[C@@H](CC(=O)O)C(=O)N[C@H](C(=O)NCC(=O)N[C@@H](CO)C(=O)NCC(=O)N[C@@H](CO)C(=O)N1CCC[C@H]1C(N)=O)C(C)C)[C@@H](C)O)C(C)C)[C@@H](C)O) [calcitonin derivative M25]
